Measurements from US20050118148.

Tests used:
Experiment in all cases: cell_activity
c-Maf (Mus musculus) = c-Maf (Mus musculus) (UniProt P54843); details: HeLa; +/-12.1
MafB (Mus musculus) = MafB (Mus musculus) (UniProt P54841); details: HeLa; +/-10.4
[1] = target: MafA (mouse L-Maf) (Mus musculus) (UniProt Q8CF90); details: HeLa; +/-2.8
MafA (mouse L-Maf) (Mus musculus), sequence (Q8CF90 whole entry): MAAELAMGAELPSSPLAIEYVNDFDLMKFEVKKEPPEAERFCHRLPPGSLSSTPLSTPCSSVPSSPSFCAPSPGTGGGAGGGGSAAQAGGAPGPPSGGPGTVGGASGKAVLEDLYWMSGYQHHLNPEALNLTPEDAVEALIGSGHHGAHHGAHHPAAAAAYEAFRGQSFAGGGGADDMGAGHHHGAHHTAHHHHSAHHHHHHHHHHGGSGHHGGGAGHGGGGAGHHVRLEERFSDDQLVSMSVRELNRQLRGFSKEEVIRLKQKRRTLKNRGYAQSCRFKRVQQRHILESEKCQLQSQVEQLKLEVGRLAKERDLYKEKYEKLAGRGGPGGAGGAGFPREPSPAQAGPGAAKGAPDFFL

c-Maf (Mus musculus), sequence (P54843 whole entry): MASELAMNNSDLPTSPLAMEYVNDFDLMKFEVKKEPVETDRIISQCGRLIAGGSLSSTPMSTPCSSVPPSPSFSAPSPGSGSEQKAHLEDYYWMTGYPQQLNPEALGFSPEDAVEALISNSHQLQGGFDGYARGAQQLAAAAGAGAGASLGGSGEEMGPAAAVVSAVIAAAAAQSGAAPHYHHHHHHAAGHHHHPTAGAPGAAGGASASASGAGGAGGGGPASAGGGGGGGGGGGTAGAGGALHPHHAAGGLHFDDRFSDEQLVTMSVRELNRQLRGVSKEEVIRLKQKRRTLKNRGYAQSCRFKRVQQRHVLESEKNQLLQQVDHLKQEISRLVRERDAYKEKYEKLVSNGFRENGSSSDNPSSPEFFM
MafB (Mus musculus), sequence (P54841 whole entry): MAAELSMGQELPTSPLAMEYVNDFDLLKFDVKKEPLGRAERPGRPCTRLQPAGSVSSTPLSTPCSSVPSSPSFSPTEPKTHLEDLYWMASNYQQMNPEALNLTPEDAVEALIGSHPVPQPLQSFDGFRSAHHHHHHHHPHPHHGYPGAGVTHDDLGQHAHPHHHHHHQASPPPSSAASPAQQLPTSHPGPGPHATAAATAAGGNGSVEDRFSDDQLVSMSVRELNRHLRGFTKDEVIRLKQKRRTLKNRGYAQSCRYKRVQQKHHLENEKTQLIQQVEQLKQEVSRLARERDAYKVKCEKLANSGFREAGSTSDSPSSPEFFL

“rat insulin II promoter -238/+2 (-238 WT LUC)” showed an activity (relative luciferase (printed as %)) (c-Maf (Mus musculus)) of 28, an activity (relative luciferase (printed as %)) (MafB (Mus musculus)) of 23.9 and an activity (relative luciferase (printed as %)) [1] of 13.2.
